The values below come from US20250109178A1 (XYPHOS BIOSCIENCES, published 2025).

Assay [1] addresses T1, Fc-NKG2D.wt (natural human NKG2D ectodomain fused to the C-terminus of human IgG1 Fc) (human).
T1 construct: also called natural Fc-NKG2D; wild-type Fc-NKG2D
As to the kind of experiment: titration ELISA, Fc-NKG2D coated, rituximab MicAbody titrated.

Assay [2] concerns the target T2, Fc-NKG2D.Y152A (human).
T2 construct: also called NKG2D.YA; Fc-NKG2D.YA
As to the kind of experiment: ELISA and Octet.

The target in assay [3] is T1, Fc-NKG2D.wt (natural human NKG2D …). As to the kind of experiment: ELISA, Fc-NKG2D coated, MicAbody titrated from 300 nM (GraphPad Prism). As for the experimental part: (§1) The binding affinities of α1-α2 variants to the extracellular domains of natural (wild-type) NKG2D and non-natural eNKG2D proteins were analyzed using a plate-based ELISA method. […] The plates were washed three times in PBS/0.05% Tween-20 (PBS-T) at 20-22° C., and blocked with 0.5% bovine serum albumin in PBS (PBS-B) for 2 hours at 20-22° C.

For assay [4], the target named is T2, Fc-NKG2D.Y152A. As to the kind of experiment: ELISA, Fc-eNKG2D coated, MicAbody titrated from 300 nM. How it is done:
as §1

Assay [5] has as its target T1, Fc-NKG2D.wt (natural human NKG2D …). As to the kind of experiment: ELISA, Fc-NKG2D coated, rituximab MicAbody titrated (FIGS. 16A and 16B).
For assay [6], the target named is T2, Fc-NKG2D.Y152A. The assay is described as above.
Assay [7] addresses Fc-NKG2D.AF, eNKG2D5 (Y152A/Y199F) (human). The description is as above.
Assay [8] concerns the target T1, Fc-NKG2D.wt (natural human NKG2D …). As to the kind of experiment: ELISA, rituximab MicAbody on Fc-NKG2D (legend of FIGS. 16A and 16B).

Residue numbers refer to the chain shown, from its start. Numbers in names are those of the source.

T2 sequence (chain, as listed by the source Y152A Y152A limits assumed): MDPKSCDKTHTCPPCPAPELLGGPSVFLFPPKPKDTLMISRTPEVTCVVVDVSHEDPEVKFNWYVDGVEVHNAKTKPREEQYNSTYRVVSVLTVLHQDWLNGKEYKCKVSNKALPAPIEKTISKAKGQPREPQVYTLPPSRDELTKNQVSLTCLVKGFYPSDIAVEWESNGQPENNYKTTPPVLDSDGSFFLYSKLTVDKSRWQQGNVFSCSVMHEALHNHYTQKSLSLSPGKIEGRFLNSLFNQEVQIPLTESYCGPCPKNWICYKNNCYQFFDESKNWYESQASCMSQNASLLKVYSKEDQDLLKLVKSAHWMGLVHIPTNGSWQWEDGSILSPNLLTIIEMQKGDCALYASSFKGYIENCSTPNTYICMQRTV
T1 sequence (chain, as listed by the source limits assumed): as the sequence (chain, as listed by the source Y152A Y152A limits assumed) above, with A312Y counted along it
Sequence of Fc-NKG2D.AF, eNKG2D5 (Y152A/Y199F) (human) (chain, as listed by the source Y152A Y199F Y152A Y199F limits assumed): as the sequence (chain, as listed by the source Y152A Y152A limits assumed) above, with Y359F counted along it

B1: rituximab-ULBP2.C MicAbody (bispecific antibody, human IgG1, kappa)
heavy: not shown
light: QIVLSQSPAILSASPGEKVTMTCRASSSVSYIHWFQQKPGSSPKPWIYATSNLASGVPVRFSGSGSGTSYSLTISRVEAEDAATYYCQQWTSNPPTFGGGTKLEIKTVAAPSVFIFPPSDEQLKSGTASVVCLLNNFYPREAKVQWKVDNALQSGNSQESVTEQDSKDSTYSLSSTLTLSKADYEKHKVYACEVTHQGLSSPVTKSFNRGECAPTSSSGGGGSEPHSLSYDITVIPKFRPGPRWCAVQGQVDEKTFLHYDCGNKTVTPVSPLGKKLNVTTAWKAQNPVLREVVDILTEQLWDIQLENYTPKEPLTLQARMSCEQKAEGHSSGSWQFSFDGQIFLLFDSEKRMWTTVHPGARKMKEKWENDKVVATILWQTSMGDCIGWLEDFLMGMDSTLEPS
As to B1, in assay [1], the binding result is “no binding”.

B2: ULBP2.S3 α1-α2 domain, monomeric His-tagged format (ligand)
chain: EPHSLSYDITVIPKFRPGPRWCAVQGQVDEKTFLHYDCGNKTVTPVSPLGKKLNVTTAWKAQNPVLREVVDILTEQLWDIQLENYTPKEPLTLQARMSCEQKAEGHSSGSWQFSFDGQIFLLFDSEKRMWTTVHPGARKMKEKWENDKVVATKLYLWSMGDCIGWLEDFLMGMDSTLEPS
notes: also called ULBP2.S3 (monomeric His-tagged); not shown: His tag
Consider B2, for which the binding result in the assay with Fc-NKG2D.Y152A [2] is listed as “binds”.

B3: ULBP2.wt rituximab-MicAbody (bispecific antibody, human IgG1, kappa)
heavy: not shown
light: QIVLSQSPAILSASPGEKVTMTCRASSSVSYIHWFQQKPGSSPKPWIYATSNLASGVPVRFSGSGSGTSYSLTISRVEAEDAATYYCQQWTSNPPTFGGGTKLEIKRTVAAPSVFIFPPSDEQLKSGTASVVCLLNNFYPREAKVQWKVDNALQSGNSQESVTEQDSKDSTYSLSSTLTLSKADYEKHKVYACEVTHQGLSSPVTKSFNRGECAPTSSSGGGGSEPHSLSYDITVIPKFRPGPRWCAVQGQVDEKTFLHYDCGNKTVTPVSPLGKKLNVTTAWKAQNPVLREVVDILTEQLRDIQLENYTPKEPLTLQARMSCEQKAEGHSSGSWQFSFDGQIFLLFDSEKRMWTTVHPGARKMKEKWENDKVVAMSFHYFSMGDCIGWLEDFLMGMDSTLEPS
notes: Rituximab IgG1 with wild-type ULBP2 α1-α2 domain fused to the light chain; bivalent for the α1-α2 domain; also called ULBP2 MicAbody; ULBP2 wild-type MicAbody
The molecule B3 gave a Kd in assay [3] of 1.4 nM. For the same molecule, the binding result in the assay with Fc-NKG2D.Y152A [4] is reported as “binds”.

B4: rituximab-ULBP2.R MicAbody (bispecific antibody, human IgG1, kappa)
heavy: not shown
light: B3 light with R302W, M376T, S377L, F378L, H379W, Y380G, F381W
notes: also called ULBP2.R rituximab-MicAbody; rituximab-MicAbody
As for B4, the binding result (in assay [5]; with Fc-NKG2D.Y152A [6]) was “no binding” each time.

B5: rituximab-ULBP2.S3 MicAbody (bispecific antibody, human IgG1, kappa)
heavy: not shown
light: B3 light with R302W, M376T, S377K, F378L, H379Y, Y380L, F381W
notes: also called ULBP2.S3 as a MicAbody
Turning to B5, the binding result in assay [5] and in assay [7] was “no binding” throughout.

B6: rituximab-ULBP2.R80W MicAbody (bispecific antibody, human IgG1, kappa, N297A)
heavy: QVQLQQPGAELVKPGASVKMSCKASGYTFTSYNMHWVKQTPGRGLEWIGAIYPGNGDTSYNQKFKGKATLTADKSSSTAYMQLSSLTSEDSAVYYCARSTYYGGDWYFNVWGAGTTVTVSAASTKGPSVFPLAPSSKSTSGGTAALGCLVKDYFPEPVTVSWNSGALTSGVHTFPAVLQSSGLYSLSSVVTVPSSSLGTQTYICNVNHKPSNTKVDKKVEPKSCDKTHTCPPCPAPELLGGPSVFLFPPKPKDTLMISRTPEVTCVVVAVSHEDPEVKFNWYVDGVEVHNAKTKPREEQYASTYRVVSVLTVLHQDWLNGKEYKCKVSNKALPAPIEKTISKAKGQPREPQVYTLPPSRDELTKNQVSLTCLVKGFYPSDIAVEWESNGQPENNYKTTPPVLDSDGSFFLYSKLTVDKSRWQQGNVFSCSVMHEALHNHYTQKSLSLSPGGGGSEPHSLSYDITVIPKFRPGPRWCAVQGQVDEKTFLHYDCGNKTVTPVSPLGKKLNVTTAWKAQNPVLREVVDILTEQLWDIQLENYTPKEPLTLQARMSCEQKAEGHSSGSWQFSFDGQIFLLFDSEKRMWTTVHPGARKMKEKWENDKVVAMSFHYFSMGDCIGWLEDFLMGMDSTLEPS
light: QIVLSQSPAILSASPGEKVTMTCRASSSVSYIHWFQQKPGSSPKPWIYATSNLASGVPVRFSGSGSGTSYSLTISRVEAEDAATYYCQQWTSNPPTFGGGTKLEIKTVAAPSVFIFPPSDEQLKSGTASVVCLLNNFYPREAKVQWKVDNALQSGNSQESVTEQDSKDSTYSLSSTLTLSKADYEKHKVYACEVTHQGLSSPVTKSFNRGEC
For B6, in assay [8], the binding result is “binds”.
